In US20260009804A1 (GEORGIA TECH RESEARCH, published 2026):

Columns and labels:
[1] = target: T1, hCCLZ (human myocilin coiled-coil/leucine zipper, residues 69-185) (human, UniProt Q99972 69-185); assay: dot blot, purified construct
T1 construct: Made in E. coli (pET-30 XaLIC); Tags were cleaved for immunization and panning; the tagged form was used in cell-lysate dot blots; also called human coiled-coil/leucine zipper
T1 sequence: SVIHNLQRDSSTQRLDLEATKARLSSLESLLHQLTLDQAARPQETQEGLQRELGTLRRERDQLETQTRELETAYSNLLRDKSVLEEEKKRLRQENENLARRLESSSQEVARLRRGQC
Description: (§1) Dot Blots and Western Blots: Dot and western blots were conducted using protocols previously described in detail (Patterson-Orazem, et al., Exp Eye Res, 173:109-112 (2018)). Briefly, protein samples were immobilized on methanol-activated polyvinylidene difluoride membranes (Millipore®) by electrophoresis for Western blots and by direct deposition of 2 μL sample per dot for dot blots. Membranes were blocked overnight in 2% milk in PBS supplemented with 0.5% TWEEN-20, then probed with primary antibodies. Custom scAbs were tested at 1 μg/mL; IgGs were tested at 0.5 μg/mL to account for bivalency. Protein expression in cell lysates was confirmed using 1:1000 mouse anti-His antibody (RRID: AB_2533947). […] Custom scAbs were detected with 1:2000 (whole cell lysate dot blots) or 1:5000 (all other experiments) dilution of HRP-conjugated goat anti-human κ light chain secondary antibody (RRID: AB_619883). Binding of control antibodies and custom IgGs was detected using 1:2000 (whole cell lysate dot blots) or 1:5000 (all other experiments) dilution of HRP-conjugated goat anti-mouse IgG (H+L) secondary antibody (RRID: AB_2533947).
(§2) Conformational specificity was assessed by comparing results from dot blots (FIGS. 4A-4D) and Western blots (FIG. 4E-4H), experiments were conducted in parallel with specific quantities of purified myocilin constructs. […]

[2] = target: T2, hNTD (human myocilin N-terminal domain, residues 33-226) (human, UniProt Q99972 33-226); assay: dot blot, purified construct
T2 construct: also called longer hNTD construct
T2 sequence: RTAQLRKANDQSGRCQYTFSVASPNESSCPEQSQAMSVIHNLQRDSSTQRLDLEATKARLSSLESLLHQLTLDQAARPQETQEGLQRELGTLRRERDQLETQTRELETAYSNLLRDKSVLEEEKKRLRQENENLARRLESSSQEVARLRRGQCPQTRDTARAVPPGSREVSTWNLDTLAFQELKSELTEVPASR
Description: as §1, §2

[3] = target: T3, full-length endogenous human myocilin from spent medium of human trabecular meshwork (hTM) cells (human, UniProt Q99972 33-504); assay: immunoprecipitation from spent hTM medium
T3 construct: Secreted protein; It was heparin-enriched for dot blots and used directly from spent medium for immunoprecipitation; also called full-length myocilin; hTM-secreted myocilin
T3 sequence: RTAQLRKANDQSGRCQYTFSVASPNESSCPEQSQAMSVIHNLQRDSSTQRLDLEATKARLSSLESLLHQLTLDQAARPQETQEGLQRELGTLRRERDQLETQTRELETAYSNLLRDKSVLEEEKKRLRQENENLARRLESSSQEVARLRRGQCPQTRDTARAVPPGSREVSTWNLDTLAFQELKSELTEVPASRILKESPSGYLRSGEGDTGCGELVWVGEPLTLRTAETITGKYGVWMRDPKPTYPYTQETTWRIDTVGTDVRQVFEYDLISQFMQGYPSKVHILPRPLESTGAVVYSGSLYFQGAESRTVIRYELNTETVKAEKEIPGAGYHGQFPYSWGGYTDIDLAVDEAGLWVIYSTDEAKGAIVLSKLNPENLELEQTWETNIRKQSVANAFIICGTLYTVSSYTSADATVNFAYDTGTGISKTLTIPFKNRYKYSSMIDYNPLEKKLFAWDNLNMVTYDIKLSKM
Description: Immunoprecipitation: Antibodies in IgG format (0.5 ng/ml) were incubated with 10 mL spent hTM medium (experiment) or 10 mL buffer control (50 mM HEPES pH 7.5, 200 mM NaCl, 10% glycerol) overnight at 4° C. on a rocker. Subsequently, Pierce™ Protein A/G Plus agarose suspension (50 μL, ThermoFisher Scientific®) was added, and samples were rocked an additional 2 hours at room temperature. Resin was pelleted by centrifugation (10 minutes at 1,000× g), washed at least 5 times with 500 uL buffer. Bound proteins were eluted by adding 50 μL 2× Laemmli buffer, incubated for 10 minutes at room temperature, followed by pelleting and removing the supernatant. Samples were supplemented to 3% v/v β-mercaptoethanol and heated 10 minutes at 95° C. prior to SDS-PAGE and Western blot analysis.

[4] = target: T4, mLZ (mouse myocilin leucine zipper, residues 93-171) (mouse, UniProt O70624 93-171); assay: summary of ELISA and dot blot
T4 construct: Arose when Factor Xa cleaved mCCLZ after TLGR92; also called mouse leucine zipper; mouse LZ
T4 sequence: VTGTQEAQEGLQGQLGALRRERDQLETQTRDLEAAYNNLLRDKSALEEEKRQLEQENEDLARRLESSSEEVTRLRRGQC

binding result [1]: binds
binding result [2]: binds
binding result [3]: binds
binding result [4]: binds
B1: 2A4 IgG (monoclonal antibody 2A4) (antibody, V domains shown)
VH: EVQLQQSGAELMRSGASVKLSCTASGFNIKDYYMHWVKQRPEQGLEWIGWIDPENGDTEYAPKFQGKATMTADTSSNTAYLQLSSLTSEDTAVYYCNPFVYWGQGTLVTVSA
VL: DIVMTQSQKFMSTSVGDRVSVTCKASQNVGTNVAWYQQKPGQSPKALIYSASYRYSGVPDRFTGSGSGTDFTLTISNVQSEDLAEYSCQQYNSYPYTFGGGTKLEIKR
notes: Full length chimeric human IgG1 with kappa light chain (IgG-Abvec and IgK-Abvec vectors), produced in CHO-K1 cells
